One test has as its target T1, CCR8 (human, UniProt P51685 1-355).
T1 construct: whole, on cells; also called human CCR8; HEK/CCR8
The test can be described thus: flow cytometry on receptor-expressing cells. On the technique in general: Flow cytometry measures light scatter and fluorescence of single cells or particles in a stream.

The target in a further test is T2, CCR4 (human, UniProt P51679 1-360).
T2 construct: whole, on cells; also called human CCR4; CCR4 on CEM cells
T2 sequence (looked up): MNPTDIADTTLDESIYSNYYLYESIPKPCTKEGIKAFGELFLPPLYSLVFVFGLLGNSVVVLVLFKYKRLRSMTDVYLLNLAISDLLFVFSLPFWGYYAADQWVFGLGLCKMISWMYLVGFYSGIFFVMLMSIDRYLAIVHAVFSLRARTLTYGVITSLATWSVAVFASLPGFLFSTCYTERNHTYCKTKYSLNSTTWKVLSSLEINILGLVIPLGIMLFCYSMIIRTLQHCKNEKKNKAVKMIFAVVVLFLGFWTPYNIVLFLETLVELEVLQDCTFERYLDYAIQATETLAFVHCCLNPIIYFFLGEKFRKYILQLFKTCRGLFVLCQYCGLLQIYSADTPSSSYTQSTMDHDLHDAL
As to the kind of experiment: flow cytometry on CEM cells, anti-EDN antibody detection.

The results in this text go back to US20140341937A1 (US Dept. of Health and Human Services, published 2014).

T1 sequence (P51685 whole entry): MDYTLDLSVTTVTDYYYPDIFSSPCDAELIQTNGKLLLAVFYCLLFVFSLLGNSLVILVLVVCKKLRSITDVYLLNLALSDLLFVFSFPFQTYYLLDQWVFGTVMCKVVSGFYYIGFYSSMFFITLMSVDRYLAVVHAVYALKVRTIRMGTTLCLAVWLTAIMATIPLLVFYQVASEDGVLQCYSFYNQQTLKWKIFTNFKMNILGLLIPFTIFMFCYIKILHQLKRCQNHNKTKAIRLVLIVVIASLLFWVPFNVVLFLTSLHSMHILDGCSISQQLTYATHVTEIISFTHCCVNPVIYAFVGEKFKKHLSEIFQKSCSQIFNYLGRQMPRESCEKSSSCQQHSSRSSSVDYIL

B1: eosinophil-derived neurotoxin (EDN) (enzyme, human, UniProt P10153 28-161, looked up)
chain: KPPQFTWAQWFETQHINMTSQQCTNAMQVINNYQRRCKNQNTFLLTTFANVVNVCGNPNMTCPSNKTRKNCHHSGSQVPLIHCNLTTPSPQNISNCRYAQTPANMFYIVACDNRDQRRDPPQYPVVPVHLDRII
notes: Unfused control protein; also called EDN alone; toxin alone
On to B1, for which the binding result with CCR8 is “no binding”; with CCR4, “no binding (tested: 50 µg/ml)”.
